# Experimental data as given in paper PMC12726774, “HAEEPGP Peptide Efficiently Prevents Alzheimer's Disease Pathology in Vivo” (Alzheimer's & Dementia, 2025).
# B1: HAEEPGP peptide (peptide)
# peptide: HAEEPGP
# notes: HAEE tetrapeptide with PGP amino acids added to its C-terminus to stabilize the peptide; The 125I label was used for pharmacokinetics only, not for the calorimetry
# Biological target: beta-amyloid (Aβ) peptide
# Experiment: ITC; isothermal titration calorimetry of HAEEPGP with Aβ peptides; also with zinc ions, which enhanced the interaction; which peptide was titrated, buffer and temperature not told
# Details: both partners purified
binder,measurement,value
B1,Kd,1640 nM
